Data on 2 substances can be found in article PMC2141715.

Like-named read-outs stand apart in the source and are kept apart here.

Holding throughout (assay): co-IP
The target in assay [1] is calnexin (canine pancreas microsomes) (dog (endogenous in canine pancreas microsomes)) (UniProt P24643).
Assay [2] addresses calreticulin (canine pancreas microsomes) (dog (endogenous in canine pancreas microsomes)) (UniProt P28490).
Assay [3] concerns the target calnexin (canine pancreas microsomes) (dog (endogenous in canine pancreas microsomes)) (UniProt P24643). This is another data set of the same source.
The target in assay [4] is calreticulin (canine pancreas microsomes) (dog (endogenous in canine pancreas microsomes)) (UniProt P28490). The source holds these as a separate data set.

UniProt P24643, sequence (P24643 21-593): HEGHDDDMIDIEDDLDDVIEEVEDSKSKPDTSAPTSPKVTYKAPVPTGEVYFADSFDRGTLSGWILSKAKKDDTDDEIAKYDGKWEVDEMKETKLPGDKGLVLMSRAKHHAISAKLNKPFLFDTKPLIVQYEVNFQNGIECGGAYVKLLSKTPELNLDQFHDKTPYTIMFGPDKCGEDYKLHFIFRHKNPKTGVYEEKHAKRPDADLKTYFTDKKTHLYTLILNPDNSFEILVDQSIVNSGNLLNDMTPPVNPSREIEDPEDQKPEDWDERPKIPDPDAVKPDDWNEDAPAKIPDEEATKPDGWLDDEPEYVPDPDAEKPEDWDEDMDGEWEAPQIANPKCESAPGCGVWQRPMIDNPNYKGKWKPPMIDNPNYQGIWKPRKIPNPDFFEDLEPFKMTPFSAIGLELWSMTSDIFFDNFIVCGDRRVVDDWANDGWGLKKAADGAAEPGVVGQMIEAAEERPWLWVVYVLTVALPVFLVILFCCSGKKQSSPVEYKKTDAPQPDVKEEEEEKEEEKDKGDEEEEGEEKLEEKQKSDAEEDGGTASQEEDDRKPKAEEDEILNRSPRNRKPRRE

In the case of “anchor-free, truncated, soluble form of HA (domain or fragment)”, the percent of HA coprecipitated in assay [1] was found to be 54%; in assay [2] it was 50%.

For “influenza virus hemagglutinin (HA), wild type, X31 (natural protein)”, in assay [3], the binding ratio of the IT2 form (IT1 = 1.0, normalised to anti-HA precipitations) turned out to be 0.65; the binding ratio of the NT form (IT1 = 1.0, normalised to anti-HA precipitations) came out at 0.63; the percent of HA in calnexin–HA complexes without calreticulin was determined as 8%; the percent of HA in ternary complexes with m2 and m3 worked out at 40%. Moreover, in assay [4], the binding ratio of the IT2 form (IT1 = 1.0, normalised to anti-HA precipitations) came to 0.57; the binding ratio of the NT form (IT1 = 1.0, normalised to anti-HA precipitations) was determined as 0.16; the percent of HA coprecipitated is 45%; the percent of HA in calreticulin–HA complexes without calnexin was found to be 10%. In assay [4], the percent of HA in ternary complexes with m2 and m3 amounted to 40%. For the same substance, the percent of HA coprecipitated in assay [1] turned out to be 82%. Moreover, the percent of HA coprecipitated in assay [2] turned out to be 50%.
